The data set “native gel or EMSA” concerns the molecule itself. The data set is described as follows: native gel or EMSA.
Data set [1] deals with the molecule itself.

B1: full-length PrP (mouse PrP 23–231) (natural protein)
chain: not shown
As for B1, the binding result in “native gel or EMSA” is recorded as “binds”.

B2: PrP-like ectodomain of ZIP5 (domain or fragment)
chain: WVGGSVPNLGPAEQEQNHYLAQLFGLYGENGTLTAGGLARLLHSLGLGRVQGLRLGHHEPPTGRAAPTSGDNFTHRLQEPELSVDIWAGMPLGPSGWGDQEESKAPDLHGSGPSSLDLFQRLLLLDHSLADHLNEDCLNGSQLLVNFGLSPVAPLTPRQFALLCPALLYQIDSRVCIKTPAPAPPGDVLSA
As usually defined, the stoichiometry N is the number of molecules, sites or subunits per partner or assembly. For the protein B2, in data set [1], the “stoichiometry N” value was determined as 2.

B3: Syrian hamster PrP90–232 (domain or fragment)
chain: not shown
On to B3, for which the binding result in the data set “native gel or EMSA” was “binds”.

B4: C-terminal PrP domain (mouse PrP 120–231) (domain or fragment)
chain: not shown
Regarding B4, the binding result in the data set “native gel or EMSA” is reported as “binds”.

Source of the values: article PMC4031664 (Prion, 2013).
